For one data set, the target named is T1, Pot1-DBD_Q91A (Schizosaccharomyces pombe, UniProt O13988 1-389, Q91A).
T1 sequence: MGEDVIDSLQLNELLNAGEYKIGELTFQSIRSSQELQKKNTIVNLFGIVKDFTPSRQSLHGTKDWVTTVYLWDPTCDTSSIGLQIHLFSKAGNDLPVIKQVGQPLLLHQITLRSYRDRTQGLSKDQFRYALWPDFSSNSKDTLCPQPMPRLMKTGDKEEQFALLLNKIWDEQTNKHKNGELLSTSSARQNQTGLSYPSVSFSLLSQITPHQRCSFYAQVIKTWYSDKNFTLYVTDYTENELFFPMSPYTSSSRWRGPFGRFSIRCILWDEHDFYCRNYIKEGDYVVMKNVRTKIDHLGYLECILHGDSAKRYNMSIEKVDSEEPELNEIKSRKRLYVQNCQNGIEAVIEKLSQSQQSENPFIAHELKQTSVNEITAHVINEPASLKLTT
Description: filter binding.

A further data set addresses T2, Pot1-DBD_S123A (Schizosaccharomyces pombe, UniProt O13988 1-389, S123A).
T2 sequence: T1 sequence with A91Q, S123A
Description: filter binding.

The target of another data set is T3, Pot1-DBD (Schizosaccharomyces pombe, UniProt O13988 1-389).
T3 sequence: T1 sequence with A91Q
Briefly: filter binding.

The next data set addresses T4, Pot1-DBD_V97A (Schizosaccharomyces pombe, UniProt O13988 1-389, V97A).
T4 sequence: T1 sequence with A91Q, V97A
Description: filter binding.

The target in another data set is T5, Pot1pC (Schizosaccharomyces pombe, UniProt O13988 178-389).
T5 sequence: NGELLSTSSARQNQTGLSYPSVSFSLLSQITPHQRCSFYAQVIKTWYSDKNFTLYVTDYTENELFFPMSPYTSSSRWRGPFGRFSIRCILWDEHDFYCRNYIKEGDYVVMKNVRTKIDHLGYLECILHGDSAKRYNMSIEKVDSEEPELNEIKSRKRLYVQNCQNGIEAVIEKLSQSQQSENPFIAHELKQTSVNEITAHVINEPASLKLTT
Description: EMSA. On the technique in general: Mobility shift assays separate free from complexed probe on a gel.

Residue numbers refer to the chain shown, from its start.

Broadly, the Kd is a measure of binding affinity in units of concentration. Lower therefore signals higher affinity. Consider GGTTACGGTTAC (ssDNA) [12mer], for which the dissociation constant (Kd) in the data set with Pot1-DBD_Q91A was found to be 7 ± 0.6 nM; with Pot1-DBD_S123A it was 30 ± 2 nM; with Pot1-DBD, 1 ± 0.1 nM; with Pot1-DBD_V97A, 10 ± 1 nM; in the data set with Pot1pC, 700 ± 200 nM.

The values are drawn from PMC2756145.
